Assays:
[1] = target: the molecule itself; experiment: SDS-PAGE with Coomassie staining of SEC-pure samples (monomer and dimer bands); fractions of the main SEC peak in DDM + CHS
[2] = target: the molecule itself; experiment: SDS-PAGE with Coomassie staining and immunoblot by the tag (monomer and dimer bands); affinity-pure fractions (IMAC or StrepII-tag affinity) of N-terminal hZIP1 fusions solubilized in 2% DDM + 0.2% CHS; blot with 6xHis mAb-HRP or Strep-Tactin HRP
[3] = target: the molecule itself; experiment: SDS-PAGE with Coomassie staining and in-gel GFP fluorescence (monomer and dimer bands); IMAC eluate of hZIP1-TEV-GFP-His solubilized in 2% DDM + 0.68% CHS

B1: StrepII-TEV-hZIP1 (natural protein, human, UniProt Q9NY26 1-324, looked up)
chain: MGPWGEPELLVWRPEAVASEPPVPVGLEVKLGALVLLLVLTLLCSLVPICVLRRPGANHEGSASRQKALSLVSCFAGGVFLATCLLDLLPDYLAAIDEALAALHVTLQFPLQEFILAMGFFLVLVMEQITLAYKEQSGPSPLEETRALLGTVNGGPQHWHDGPGVPQASGAPATPSALRACVLVFSLALHSVFEGLAVGLQRDRARAMELCLALLLHKGILAVSLSLRLLQSHLRAQVVAGCGILFSCMTPLGIGLGAALAESAGPLHQLAQSVLEGMAAGTFLYITFLEILPQELASSEQRILKVILLLAGFALLTGLLFIQI
notes: human ZIP1 (hZIP1), full-length, codon-optimized cDNA; UniProt Q9NY26; A TEV protease site stands between the StrepII tag and hZIP1; not cleaved here; Predicted MW 36.5 kDa; also called N-terminal hZIP1 fusion; not shown: StrepII, N-terminal, kept
- binding result [1]: binds

B2: His-TEV-hZIP1 (natural protein, human, UniProt Q9NY26 1-324, looked up)
chain: MGPWGEPELLVWRPEAVASEPPVPVGLEVKLGALVLLLVLTLLCSLVPICVLRRPGANHEGSASRQKALSLVSCFAGGVFLATCLLDLLPDYLAAIDEALAALHVTLQFPLQEFILAMGFFLVLVMEQITLAYKEQSGPSPLEETRALLGTVNGGPQHWHDGPGVPQASGAPATPSALRACVLVFSLALHSVFEGLAVGLQRDRARAMELCLALLLHKGILAVSLSLRLLQSHLRAQVVAGCGILFSCMTPLGIGLGAALAESAGPLHQLAQSVLEGMAAGTFLYITFLEILPQELASSEQRILKVILLLAGFALLTGLLFIQI
notes: human ZIP1 (hZIP1), full-length, codon-optimized cDNA; UniProt Q9NY26; A TEV protease site stands between the His8 tag and hZIP1; also called N-terminal hZIP1 fusion; source: S. cerevisiae PAP1500, purified from crude membranes solubilized in 2% DDM + 0.2% CHS (IMAC); not shown: His8, N-terminal, kept
- binding result [2]: binds

B3: hZIP1-TEV-GFP-His (natural protein, human, UniProt Q9NY26 1-324, looked up)
chain: MGPWGEPELLVWRPEAVASEPPVPVGLEVKLGALVLLLVLTLLCSLVPICVLRRPGANHEGSASRQKALSLVSCFAGGVFLATCLLDLLPDYLAAIDEALAALHVTLQFPLQEFILAMGFFLVLVMEQITLAYKEQSGPSPLEETRALLGTVNGGPQHWHDGPGVPQASGAPATPSALRACVLVFSLALHSVFEGLAVGLQRDRARAMELCLALLLHKGILAVSLSLRLLQSHLRAQVVAGCGILFSCMTPLGIGLGAALAESAGPLHQLAQSVLEGMAAGTFLYITFLEILPQELASSEQRILKVILLLAGFALLTGLLFIQI
notes: human ZIP1 (hZIP1), full-length, codon-optimized cDNA synthesized by GenScript; UniProt Q9NY26; A TEV protease site (ENLYFQ↓SQF) stands between hZIP1 and GFP-His8; the fusion could not be cleaved by TEV protease; Predicted MW 63.3 kDa; also called hZIP1 C-terminally fused to TEV-GFP-His-tag; SLC39 family member; source: S. cerevisiae PAP1500, in whole-cell lysate; also purified from crude …
- binding result [3]: binds

From publication PMC7911073, “Overproduction of Human Zip (SLC39) Zinc Transporters in Saccharomyces cerevisiae for Biophysical Characterization” (Cells, 2021)
